Results on one substance are retold here after patent US20210284724A1.

Assay in all cases: alanine scan, flow cytometry on transfected cells
Assay [1] has as its target human CXCL13 P22A (human) (UniProt O43927).
Assay [2] has as its target human CXCL13 R24A (human) (UniProt O43927).
For assay [3], the target named is human CXCL13 F25A (human) (UniProt O43927).
In assay [4] the target is human CXCL13 F20A (human) (UniProt O43927).
human CXCL13 F20A (human), sequence (O43927 23-109 F42A): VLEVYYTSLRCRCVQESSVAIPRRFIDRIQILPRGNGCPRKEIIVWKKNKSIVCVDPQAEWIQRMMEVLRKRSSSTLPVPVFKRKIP

human CXCL13 R24A (human), sequence (O43927 23-109 R46A): as the sequence (O43927 23-109 F42A) above, with A20F, R24A counted along it
human CXCL13 F25A (human), sequence (O43927 23-109 F47A): as the sequence (O43927 23-109 F42A) above, with A20F, F25A counted along it
human CXCL13 P22A (human), sequence (O43927 23-109 P44A): as the sequence (O43927 23-109 F42A) above, with A20F, P22A counted along it

Turning to Control Fab, the Binding reactivity (% WT) in assay [1] amounted to 97.4 % WT; in assay [2] it was 88 % WT; in assay [3] it was 127 % WT; in assay [4] it was 110 % WT.
